Target: M6P receptor (M6PR)
Experiment: SPR (BIACORE T200), M6PR amine-coupled on CM5 chip, conjugate 200 nM to 12.5 nM, 1:1 Langmuir model

- M6PR Binding Affinity (relative to imiglucerase = 100%): 22%
Substance: imiglucerase long-acting conjugate (from UniProt P04062 40-536; P01861 107-327)

— patent US20200078470A1
